Results on 1 substance are retold here after patent EP2130555A1.

For experiment [1], the target named is hexahistidine-tagged bacterial gyrase subunit B (GyrB) of E. coli (E. coli) (UniProt P0AES6). Description: cell-based or functional assay.
For experiment [2] the target is unchanged. Description: ultrafiltration through a 50 kDa cut-off filter, without coumermycin (monomer passes the filter).
The target is the same in experiment [3]. Description: ultrafiltration through a 50 kDa cut-off filter, with coumermycin (GyrB : coumermycin = 2:1; dimer is held back).

In experiment [1], “hexahistidine-tagged bacterial gyrase subunit B (GyrB) of E. coli (from UniProt P0AES6 1-220) (enzyme)” yielded a hydrogel dissolution in PBS with 1 mM novobiocin, followed by release of GyrB-polymer complexes into the buffer of 11 h and a stability of hydrogels with DMS-crosslinked GyrB dimers in PBS with 1 mM novobiocin of 31 h. This substance also displayed a % of protein in filtrate in experiment [2] of 54%. Also, the % of protein in filtrate in experiment [3] stood at 2.8%.
